Values belong to the binder of their own block, whether it stands above or below them.
Assays:
[1] = molecular target: T1, AnkB 28–847 (MBD + partial AI-c) (human, UniProt Q01484-2 28-847); test: ITC
T1 chain: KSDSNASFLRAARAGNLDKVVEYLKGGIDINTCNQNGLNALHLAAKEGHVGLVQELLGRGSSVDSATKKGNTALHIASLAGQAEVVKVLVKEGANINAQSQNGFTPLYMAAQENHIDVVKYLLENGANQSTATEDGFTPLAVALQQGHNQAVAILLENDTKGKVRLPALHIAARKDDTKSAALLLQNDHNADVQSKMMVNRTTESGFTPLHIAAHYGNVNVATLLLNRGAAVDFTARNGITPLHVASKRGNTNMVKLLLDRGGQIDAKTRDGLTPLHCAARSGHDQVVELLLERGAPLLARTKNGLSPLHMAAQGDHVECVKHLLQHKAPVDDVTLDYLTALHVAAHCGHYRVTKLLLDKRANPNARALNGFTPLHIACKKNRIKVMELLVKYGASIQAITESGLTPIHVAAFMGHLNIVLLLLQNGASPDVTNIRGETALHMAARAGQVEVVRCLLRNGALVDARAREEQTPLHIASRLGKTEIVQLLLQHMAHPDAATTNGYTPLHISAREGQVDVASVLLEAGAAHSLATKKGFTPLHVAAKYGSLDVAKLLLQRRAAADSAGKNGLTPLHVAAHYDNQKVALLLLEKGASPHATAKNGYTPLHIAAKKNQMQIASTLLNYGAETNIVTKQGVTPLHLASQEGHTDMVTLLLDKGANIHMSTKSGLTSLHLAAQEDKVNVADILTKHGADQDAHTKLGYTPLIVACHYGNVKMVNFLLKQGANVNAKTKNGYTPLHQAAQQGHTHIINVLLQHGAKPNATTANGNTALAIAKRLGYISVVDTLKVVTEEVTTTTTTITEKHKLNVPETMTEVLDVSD

[2] = molecular target: T2, AnkG 38–903 (MBD + AI-c + AI-b) (rat, UniProt O70511-1 38-903); test: ITC
T2 chain: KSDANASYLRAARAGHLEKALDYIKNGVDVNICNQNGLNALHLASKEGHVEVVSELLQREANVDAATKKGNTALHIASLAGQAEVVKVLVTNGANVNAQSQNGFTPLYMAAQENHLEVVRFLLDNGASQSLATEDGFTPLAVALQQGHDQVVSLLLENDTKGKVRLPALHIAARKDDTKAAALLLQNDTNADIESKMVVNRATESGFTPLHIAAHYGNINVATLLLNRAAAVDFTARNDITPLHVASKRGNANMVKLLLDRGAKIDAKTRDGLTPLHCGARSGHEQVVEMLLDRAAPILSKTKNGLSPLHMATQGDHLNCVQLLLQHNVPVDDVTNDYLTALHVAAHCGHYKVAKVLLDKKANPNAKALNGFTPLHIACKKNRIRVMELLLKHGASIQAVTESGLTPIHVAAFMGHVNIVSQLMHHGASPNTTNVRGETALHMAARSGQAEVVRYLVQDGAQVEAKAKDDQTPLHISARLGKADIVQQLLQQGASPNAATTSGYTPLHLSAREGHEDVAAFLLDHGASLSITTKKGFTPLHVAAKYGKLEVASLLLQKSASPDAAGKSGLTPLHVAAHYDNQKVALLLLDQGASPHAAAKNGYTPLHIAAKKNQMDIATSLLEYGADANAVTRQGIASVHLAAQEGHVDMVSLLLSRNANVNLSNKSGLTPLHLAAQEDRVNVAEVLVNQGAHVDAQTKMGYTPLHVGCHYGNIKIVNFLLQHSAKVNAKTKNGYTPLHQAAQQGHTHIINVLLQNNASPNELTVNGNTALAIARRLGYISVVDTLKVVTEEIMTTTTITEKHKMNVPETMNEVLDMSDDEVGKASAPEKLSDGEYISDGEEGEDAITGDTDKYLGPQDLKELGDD

[3] = molecular target: T3, AnkG 38–855 (AnkG MBD-AI-c protein; MBD + partial AI-c) (rat, UniProt O70511-1 38-855); test: ITC
T3 chain: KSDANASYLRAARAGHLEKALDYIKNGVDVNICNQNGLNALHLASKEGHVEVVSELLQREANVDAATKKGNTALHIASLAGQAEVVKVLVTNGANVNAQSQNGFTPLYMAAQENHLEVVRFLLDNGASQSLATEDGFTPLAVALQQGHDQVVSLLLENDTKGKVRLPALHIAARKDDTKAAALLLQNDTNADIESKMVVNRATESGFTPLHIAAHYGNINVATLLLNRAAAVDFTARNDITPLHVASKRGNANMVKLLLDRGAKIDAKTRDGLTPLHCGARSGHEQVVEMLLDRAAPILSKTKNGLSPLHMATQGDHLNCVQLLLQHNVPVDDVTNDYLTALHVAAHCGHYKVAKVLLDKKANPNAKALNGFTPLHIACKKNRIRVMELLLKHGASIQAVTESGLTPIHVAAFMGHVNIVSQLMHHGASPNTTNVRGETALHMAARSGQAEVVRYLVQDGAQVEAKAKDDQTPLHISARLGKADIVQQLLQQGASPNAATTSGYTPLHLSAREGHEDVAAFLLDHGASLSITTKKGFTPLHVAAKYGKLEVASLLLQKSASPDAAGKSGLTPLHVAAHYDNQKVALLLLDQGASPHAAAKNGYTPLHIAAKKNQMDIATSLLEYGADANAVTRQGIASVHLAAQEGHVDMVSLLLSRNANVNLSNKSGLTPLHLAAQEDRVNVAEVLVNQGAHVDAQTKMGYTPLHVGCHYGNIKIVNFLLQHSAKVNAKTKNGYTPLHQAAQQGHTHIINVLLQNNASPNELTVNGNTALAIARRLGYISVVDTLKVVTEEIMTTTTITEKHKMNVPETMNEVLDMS

[4] = molecular target: T4, AnkB 28–965 (MBD + AI-c + AI-b) (human, UniProt Q01484-2 28-965); test: ITC
T4 chain: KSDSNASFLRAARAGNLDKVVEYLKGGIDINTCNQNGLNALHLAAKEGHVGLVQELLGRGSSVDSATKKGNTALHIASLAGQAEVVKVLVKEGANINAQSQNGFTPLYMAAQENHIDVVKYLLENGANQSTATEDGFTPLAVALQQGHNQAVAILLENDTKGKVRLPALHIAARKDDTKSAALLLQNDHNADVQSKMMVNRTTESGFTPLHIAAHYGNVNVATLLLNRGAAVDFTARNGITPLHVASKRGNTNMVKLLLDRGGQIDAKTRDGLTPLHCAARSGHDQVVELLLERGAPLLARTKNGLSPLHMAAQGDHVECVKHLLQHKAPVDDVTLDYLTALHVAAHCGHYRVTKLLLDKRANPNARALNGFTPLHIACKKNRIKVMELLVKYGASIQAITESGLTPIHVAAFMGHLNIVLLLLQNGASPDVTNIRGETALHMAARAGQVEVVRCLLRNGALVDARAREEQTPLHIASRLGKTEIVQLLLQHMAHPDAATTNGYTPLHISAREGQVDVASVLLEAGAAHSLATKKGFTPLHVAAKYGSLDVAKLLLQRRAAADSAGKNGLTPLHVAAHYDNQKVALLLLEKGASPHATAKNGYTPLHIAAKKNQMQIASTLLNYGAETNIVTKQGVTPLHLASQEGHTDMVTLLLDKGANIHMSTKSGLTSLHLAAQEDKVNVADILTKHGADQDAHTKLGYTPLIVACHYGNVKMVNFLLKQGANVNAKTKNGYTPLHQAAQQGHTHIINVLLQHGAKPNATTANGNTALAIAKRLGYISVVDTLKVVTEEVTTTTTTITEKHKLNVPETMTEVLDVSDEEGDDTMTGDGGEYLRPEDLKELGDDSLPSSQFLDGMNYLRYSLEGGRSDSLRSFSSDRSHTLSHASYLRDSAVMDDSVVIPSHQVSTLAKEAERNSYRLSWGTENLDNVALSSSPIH

[5] = molecular target: T1, AnkB 28–847 (MBD + partial AI-c); test: ITC; AnkB 874-965
[6] = molecular target: T5, AnkB_MBD (AnkB ANK repeats only, aa 28–827) (human, UniProt Q01484-2 28-827); test: ITC
T5 chain: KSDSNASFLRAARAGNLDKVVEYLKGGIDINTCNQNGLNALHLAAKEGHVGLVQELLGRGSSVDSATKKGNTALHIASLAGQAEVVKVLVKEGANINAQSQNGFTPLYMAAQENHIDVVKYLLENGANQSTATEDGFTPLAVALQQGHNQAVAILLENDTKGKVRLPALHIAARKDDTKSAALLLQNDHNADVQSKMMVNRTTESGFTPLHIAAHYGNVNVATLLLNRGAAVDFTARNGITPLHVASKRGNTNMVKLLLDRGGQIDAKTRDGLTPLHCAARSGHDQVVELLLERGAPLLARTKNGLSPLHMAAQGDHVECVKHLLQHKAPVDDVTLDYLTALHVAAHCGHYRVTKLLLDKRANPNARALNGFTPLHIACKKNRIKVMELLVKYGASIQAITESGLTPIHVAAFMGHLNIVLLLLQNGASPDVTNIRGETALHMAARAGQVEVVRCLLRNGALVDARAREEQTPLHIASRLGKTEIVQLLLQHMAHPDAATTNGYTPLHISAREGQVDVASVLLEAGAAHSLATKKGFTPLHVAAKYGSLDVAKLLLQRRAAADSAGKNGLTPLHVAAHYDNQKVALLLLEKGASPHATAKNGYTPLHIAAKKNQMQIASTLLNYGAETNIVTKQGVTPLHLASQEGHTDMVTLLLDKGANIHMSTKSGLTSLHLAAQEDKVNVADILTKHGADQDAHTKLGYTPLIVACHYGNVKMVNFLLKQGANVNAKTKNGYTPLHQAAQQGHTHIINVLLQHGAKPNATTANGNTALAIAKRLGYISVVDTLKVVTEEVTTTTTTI

B1: AnkB 874-896 (peptide)
chain: SLPSSQFLDGMNYLRYSLEGGRS
Kd [1]: 13 µM

B5: AnkB AI-b fragment with residues 865 to 873 deleted (domain or fragment)
chain: SLPSSQFLDGMNYLRYSLEGGRS
Kd [5]: 17 µM

B7: AnkB 828-896 (protein)
chain: TEKHKLNVPETMTEVLDVSDEEGDDTMTGDGGEYLRPEDLKELGDDSLPSSQFLDGMNYLRYSLEGGRS
Kd [1]: 2.7 µM

B8: AnkB_AI-b Tyr886Ala (domain or fragment)
chain: EDLKELGDDSLPSSQFLDGMNALRYSLEGGRS
Kd [1]: 16 µM

Other lines, results leading:

Kd [2]: 1.5 µM
Kd [3]: 0.25 µM
Kd [4]: 5.8 µM
B2: Nav1.2 (aa 1035–1129) (domain or fragment)
chain: KALDEIKPLEDLNNKKDSCISNHTTIEIGKDLNYLKDGNGTTSGIGSSVEKYVVDESDYMSFINNPSLTVTVPIAVGESDFENLNTEEFSSESDM

Kd [3]: 3.5 µM
B3: AnkG_AI-b (aa 875–903) (domain or fragment)
chain: SDGEEGEDAITGDTDKYLGPQDLKELGDD

Kd [3]: 1.1 µM
B4: AnkG 861-903 (peptide)
chain: KASAPEKLSDGEYISDGEEGEDAITGDTDKYLGPQDLKELGDD

Kd [6]: 4.4 µM
B6: AnkB_AI-c Met839Gln (domain or fragment)
chain: TEKHKLNVPETQTEVLDVSDEEGDD

Kd [6]: 2.7 µM
B9: AnkB_AI-c Asn834Lys (domain or fragment)
chain: TEKHKLKVPETMTEVLDVSDEEGDD

Kd [6]: 3.9 µM
B10: AnkB_AI-c Leu843Gln (domain or fragment)
chain: TEKHKLNVPETMTEVQDVSDEEGDD
